Drawing on ChEMBL document CHEMBL4261651, “Probing the ligand preferences of the three types of bacterial pantothenate kinase” (Bioorg Med Chem, 2018), this text covers kcat and Km for two proteins.

Compound in data set [1]: CC(C)(CO)[C@@H](O)C(=O)NCc1cn(CCc2ccccc2)nn1
The experiment in a line: (§1) Substrate activity at N-terminal His6-tagged Staphylococcus aureus PanK2 expressed in Escherichia coli BL21(DE3) cells assessed as Kcat in presence of ATP/NADH by pyruvate kinase/lactate dehydrogenase enzyme coupled assay.

Compound in data set [2]: COC(=O)CNC(=O)[C@H](O)C(C)(C)CO
Described as §1.

Compound in data set [3]: CCCCCNC(=O)CCNC(=O)[C@H](O)C(C)(C)CO
The description is as §1.

Compound in data set [4]: CC(C)(CO)[C@@H](O)C(=O)NCCCC(=O)O
The data set is described as §1.

Compound in data set [5]: CCCCCc1cn(CCNC(=O)[C@H](O)C(C)(C)CO)nn1
The data set is described as §1.

Compound in data set [6]: CC(C)(CO)[C@@H](O)C(=O)NCCC(=O)O
Described as §1.

Compound in data set [7]: CCCCCn1cc(CNC(=O)[C@H](O)C(C)(C)CO)nn1
Described as §1.

Compound in data set [8]: CCCc1cn(CCCNC(=O)[C@H](O)C(C)(C)CO)nn1
The description is as §1.

Compound in data set [9]: CCCCn1cc(CCNC(=O)[C@H](O)C(C)(C)CO)nn1
The description is as §1.

Compound in data set [10]: CCCCCn1cc(CCNC(=O)[C@H](O)C(C)(C)CO)nn1
The description is as §1.

Compound in data set [11]: CC(C)(CO)[C@@H](O)C(=O)NCc1cn(CCc2ccccc2)nn1
The data set is described as follows: (§2) Substrate activity at N-terminal His6-tagged Staphylococcus aureus PanK2 expressed in Escherichia coli BL21(DE3) cells assessed as Km in presence of ATP/NADH by pyruvate kinase/lactate dehydrogenase enzyme coupled assay.

Compound in data set [12]: COC(=O)CNC(=O)[C@H](O)C(C)(C)CO
Described as §2.

Compound in data set [13]: CCCCCNC(=O)CCNC(=O)[C@H](O)C(C)(C)CO
The description is as §2.

Compound in data set [14]: CC(C)(CO)[C@@H](O)C(=O)NCCCC(=O)O
Described as §2.

Compound in data set [15]: CCCCCc1cn(CCNC(=O)[C@H](O)C(C)(C)CO)nn1
The description is as §2.

Compound in data set [16]: CC(C)(CO)[C@@H](O)C(=O)NCCC(=O)O
The description is as §2.

Compound in data set [17]: CCCCCn1cc(CNC(=O)[C@H](O)C(C)(C)CO)nn1
The data set is described as §2.

Compound in data set [18]: CCCc1cn(CCCNC(=O)[C@H](O)C(C)(C)CO)nn1
The data set is described as §2.

Compound in data set [19]: CCCCn1cc(CCNC(=O)[C@H](O)C(C)(C)CO)nn1
The description is as §2.

Compound in data set [20]: CCCCCn1cc(CCNC(=O)[C@H](O)C(C)(C)CO)nn1
The description is as §2.

Compound in data set [21]: CC(C)(CO)[C@@H](O)C(=O)NCCCC(=O)O
The experiment in a line: (§3) Substrate activity at Pseudomonas aeruginosa PanK3 expressed in Escherichia coli BL21(DE3) cells assessed as Kcat in presence of ATP/NADH by pyruvate kinase/lactate dehydrogenase enzyme coupled assay.

Compound in data set [22]: O=C(O)CCNC(=O)[C@H](O)CCO
The data set is described as §3.

Compound in data set [23]: CC(C)(CO)[C@@H](O)C(=O)NCCC(=O)O
Described as §3.

Compound in data set [24]: CC(C)(CO)[C@@H](O)C(=O)NCCCC(=O)O
The data set is described as follows: (§4) Substrate activity at Pseudomonas aeruginosa PanK3 expressed in Escherichia coli BL21(DE3) cells assessed as Km in presence of ATP/NADH by pyruvate kinase/lactate dehydrogenase enzyme coupled assay.

Compound in data set [25]: O=C(O)CCNC(=O)[C@H](O)CCO
Described as §4.

Compound in data set [26]: CC(C)(CO)[C@@H](O)C(=O)NCCC(=O)O
Described as §4.

B1: Type II pantothenate kinase (Staphylococcus aureus (strain MSSA476)), Q6G7I0 (protein)
chain: MKVGIDAGGTLIKIVQEQDNQRTFKTELTKNIDQVVEWLNQQQIEKLCLTGGNAGVIAENINIPAQIFVEFDAASQGLGILLKEQGHDLADYIFANVGTGTSLHYFDGQSQRRVGGIGTGGGMIQGLGYLLSQITDYKQLTDMAQHGDRNTIDLKVRHIYKDTEPPIPGDLTAANFGHVLHHLDADFTPSNKLAAVIGVVGEVVTTMAITVAREFKTENIVYIGSSFHNNALLRKVVEDYTVLRGCKPYYVENGAFSGAIGALYLEK
B1: the turnover number (kcat) in [1] came to 4.7 s⁻¹; in data set [2], 4 s⁻¹; in [3] it was 0.44 s⁻¹; in data set [4] it was 3.4 s⁻¹; in data set [5], 0.82 s⁻¹; in [6] it was 2.16 s⁻¹. For the same protein, the turnover number (kcat) in data set [7] was 3.4 s⁻¹; in data set [8], 7.6 s⁻¹; in data set [9], 0.82 s⁻¹; in data set [10], 0.73 s⁻¹. In addition, the Km in data set [11] was 126 µM; in [12], 36 µM; in [13], less than 1.5 µM; in data set [14] it was 60 µM; in data set [15] it was 8.5 µM; in data set [16] it was 19 µM. The Km in [17] was 64 µM; in data set [18] it was 369 µM; in data set [19] it was 7.1 µM; in data set [20], 6.8 µM.

B2: Type III pantothenate kinase (Pseudomonas aeruginosa (strain ATCC 15692 / DSM 22644 / CIP 104116 /JCM 14847 / LMG 12228 / 1C / PRS 101 / PAO1)), Q9HWC1 (protein)
chain: MILELDCGNSLIKWRVIEGAARSVAGGLAESDDALVEQLTSQQALPVRACRLVSVRSEQETSQLVARLEQLFPVSALVASSGKQLAGVRNGYLDYQRLGLDRWLALVAAHHLAKKACLVIDLGTAVTSDLVAADGVHLGGYICPGMTLMRSQLRTHTRRIRYDDAEARRALASLQPGQATAEAVERGCLLMLRGFVREQYAMACELLGPDCEIFLTGGDAELVRDELAGARIMPDLVFVGLALACPIE
In the case of B2, the turnover number (kcat) was 0.98 s⁻¹ in data set [21], 0.32 s⁻¹ in [22] and 0.39 s⁻¹ in data set [23]. The figures for the Km in data set [24], in data set [25] and in data set [26] were 683 µM, 64 µM and 20 µM, respectively.
